These results are taken from patent publication US20240083948A1 (ADVANCED TECHNOLOGIES FOR NOVEL THERAPEUTICS, published 2024).

Test in all cases: cell-based or functional assay
The target in test [1] is JAK3 (UniProt P52333 781-1124, limits assumed).
Test [2] has as its target T1, PI3Kδ (UniProt O00329 1-1044, limits assumed).
T1 sequence (looked up): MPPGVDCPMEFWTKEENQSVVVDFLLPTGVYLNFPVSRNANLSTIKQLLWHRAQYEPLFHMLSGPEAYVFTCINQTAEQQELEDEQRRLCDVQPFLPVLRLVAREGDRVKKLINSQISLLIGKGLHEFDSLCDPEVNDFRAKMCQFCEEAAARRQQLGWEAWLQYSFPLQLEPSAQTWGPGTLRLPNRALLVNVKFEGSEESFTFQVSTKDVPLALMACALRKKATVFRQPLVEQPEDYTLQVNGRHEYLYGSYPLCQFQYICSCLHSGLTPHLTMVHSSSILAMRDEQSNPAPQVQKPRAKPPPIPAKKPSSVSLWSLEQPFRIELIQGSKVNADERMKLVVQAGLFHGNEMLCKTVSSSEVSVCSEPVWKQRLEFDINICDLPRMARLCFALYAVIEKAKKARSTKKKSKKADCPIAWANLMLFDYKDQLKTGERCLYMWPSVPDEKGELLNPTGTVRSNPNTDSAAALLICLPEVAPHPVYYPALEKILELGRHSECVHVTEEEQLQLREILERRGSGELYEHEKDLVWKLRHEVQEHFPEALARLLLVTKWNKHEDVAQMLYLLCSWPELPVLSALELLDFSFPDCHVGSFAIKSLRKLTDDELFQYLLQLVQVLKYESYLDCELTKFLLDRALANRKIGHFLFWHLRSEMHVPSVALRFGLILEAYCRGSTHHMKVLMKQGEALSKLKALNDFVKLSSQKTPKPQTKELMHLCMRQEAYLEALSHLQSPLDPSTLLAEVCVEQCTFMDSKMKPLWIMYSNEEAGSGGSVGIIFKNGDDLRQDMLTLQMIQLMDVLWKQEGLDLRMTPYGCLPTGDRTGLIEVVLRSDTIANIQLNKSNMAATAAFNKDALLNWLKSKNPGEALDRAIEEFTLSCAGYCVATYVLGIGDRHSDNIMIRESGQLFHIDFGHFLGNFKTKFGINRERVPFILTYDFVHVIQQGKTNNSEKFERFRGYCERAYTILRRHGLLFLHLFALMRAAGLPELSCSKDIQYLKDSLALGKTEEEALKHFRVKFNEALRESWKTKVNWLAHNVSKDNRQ

The target in test [3] is AKT1 (PKB alpha), active (UniProt P31749 1-480, limits assumed).
Sequence of AKT1 (PKB alpha), active (P31749 whole entry): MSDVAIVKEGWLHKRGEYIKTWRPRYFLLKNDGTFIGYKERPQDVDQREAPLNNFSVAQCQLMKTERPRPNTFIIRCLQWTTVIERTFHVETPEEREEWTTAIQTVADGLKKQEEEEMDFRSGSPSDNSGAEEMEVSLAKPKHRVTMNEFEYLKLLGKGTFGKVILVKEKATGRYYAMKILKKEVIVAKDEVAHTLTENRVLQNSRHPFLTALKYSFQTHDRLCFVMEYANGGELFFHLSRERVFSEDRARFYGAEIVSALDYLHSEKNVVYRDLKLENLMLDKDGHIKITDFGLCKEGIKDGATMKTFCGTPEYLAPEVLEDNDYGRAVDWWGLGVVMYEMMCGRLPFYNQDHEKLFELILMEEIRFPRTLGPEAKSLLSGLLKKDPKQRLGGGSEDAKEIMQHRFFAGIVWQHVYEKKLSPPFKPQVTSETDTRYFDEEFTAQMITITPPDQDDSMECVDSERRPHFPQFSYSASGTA
Test [4] has as its target TrkB (UniProt Q16620 455-822, limits assumed).
Test [5] concerns the target RPS6KB1 (p70S6K) (UniProt P23443 1-421, limits assumed).
Test [6] addresses Abl (UniProt P00519 27-1130, limits assumed).
Test [7] has as its target AKT2 (PKB beta) (UniProt P31751 1-481, limits assumed).
For test [8], the target named is T2, SGK (SGK1) (UniProt O00141 60-431, limits assumed).
T2 sequence (looked up): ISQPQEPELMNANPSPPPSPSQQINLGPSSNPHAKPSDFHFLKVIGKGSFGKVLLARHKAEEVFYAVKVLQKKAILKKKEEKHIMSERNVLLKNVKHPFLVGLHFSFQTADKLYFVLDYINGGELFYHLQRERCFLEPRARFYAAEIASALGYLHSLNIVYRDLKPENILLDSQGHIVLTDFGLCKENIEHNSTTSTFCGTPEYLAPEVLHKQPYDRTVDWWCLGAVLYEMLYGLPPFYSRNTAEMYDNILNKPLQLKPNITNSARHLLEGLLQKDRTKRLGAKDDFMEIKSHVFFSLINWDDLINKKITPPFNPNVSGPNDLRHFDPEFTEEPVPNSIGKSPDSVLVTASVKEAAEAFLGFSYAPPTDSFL

Test [9] has as its target PAK3 (UniProt O75914 1-559, limits assumed).

Sequence of RPS6KB1 (p70S6K) (P23443 1-421 limits assumed): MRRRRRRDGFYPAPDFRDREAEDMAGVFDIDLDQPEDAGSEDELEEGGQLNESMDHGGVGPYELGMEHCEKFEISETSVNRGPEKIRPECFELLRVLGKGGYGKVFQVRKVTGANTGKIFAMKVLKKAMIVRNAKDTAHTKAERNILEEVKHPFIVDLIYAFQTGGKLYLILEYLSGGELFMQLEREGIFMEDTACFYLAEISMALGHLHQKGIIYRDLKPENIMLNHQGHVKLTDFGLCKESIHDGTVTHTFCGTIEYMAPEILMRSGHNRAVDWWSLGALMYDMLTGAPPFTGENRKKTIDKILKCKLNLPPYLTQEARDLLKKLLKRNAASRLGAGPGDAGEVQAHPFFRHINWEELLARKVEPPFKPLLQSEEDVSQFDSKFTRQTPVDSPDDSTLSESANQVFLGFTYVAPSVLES
Sequence of TrkB (Q16620 455-822 limits assumed): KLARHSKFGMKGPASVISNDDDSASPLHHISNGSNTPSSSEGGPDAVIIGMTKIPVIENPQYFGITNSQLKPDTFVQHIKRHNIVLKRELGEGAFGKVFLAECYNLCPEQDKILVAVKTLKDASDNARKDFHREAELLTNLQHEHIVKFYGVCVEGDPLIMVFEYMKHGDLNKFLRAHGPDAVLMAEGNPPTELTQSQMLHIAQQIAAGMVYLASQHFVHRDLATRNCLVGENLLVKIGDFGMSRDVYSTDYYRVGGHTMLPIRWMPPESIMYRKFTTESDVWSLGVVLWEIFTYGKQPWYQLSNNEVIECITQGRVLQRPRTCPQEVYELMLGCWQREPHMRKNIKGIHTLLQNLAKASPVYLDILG
Sequence of AKT2 (PKB beta) (P31751 whole entry): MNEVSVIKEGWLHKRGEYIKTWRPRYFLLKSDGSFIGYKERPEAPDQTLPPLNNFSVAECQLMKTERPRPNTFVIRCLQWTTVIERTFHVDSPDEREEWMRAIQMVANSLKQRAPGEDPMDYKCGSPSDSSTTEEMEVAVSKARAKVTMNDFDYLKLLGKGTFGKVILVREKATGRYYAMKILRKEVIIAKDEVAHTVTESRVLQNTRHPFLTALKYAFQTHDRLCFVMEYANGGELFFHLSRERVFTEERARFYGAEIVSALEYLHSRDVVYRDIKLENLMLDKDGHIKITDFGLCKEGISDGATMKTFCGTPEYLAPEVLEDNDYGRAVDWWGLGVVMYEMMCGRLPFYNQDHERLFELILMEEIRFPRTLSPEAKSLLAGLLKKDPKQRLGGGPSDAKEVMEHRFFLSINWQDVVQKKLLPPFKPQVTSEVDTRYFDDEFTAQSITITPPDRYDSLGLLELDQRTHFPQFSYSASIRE
Sequence of Abl (P00519 27-1130 limits assumed): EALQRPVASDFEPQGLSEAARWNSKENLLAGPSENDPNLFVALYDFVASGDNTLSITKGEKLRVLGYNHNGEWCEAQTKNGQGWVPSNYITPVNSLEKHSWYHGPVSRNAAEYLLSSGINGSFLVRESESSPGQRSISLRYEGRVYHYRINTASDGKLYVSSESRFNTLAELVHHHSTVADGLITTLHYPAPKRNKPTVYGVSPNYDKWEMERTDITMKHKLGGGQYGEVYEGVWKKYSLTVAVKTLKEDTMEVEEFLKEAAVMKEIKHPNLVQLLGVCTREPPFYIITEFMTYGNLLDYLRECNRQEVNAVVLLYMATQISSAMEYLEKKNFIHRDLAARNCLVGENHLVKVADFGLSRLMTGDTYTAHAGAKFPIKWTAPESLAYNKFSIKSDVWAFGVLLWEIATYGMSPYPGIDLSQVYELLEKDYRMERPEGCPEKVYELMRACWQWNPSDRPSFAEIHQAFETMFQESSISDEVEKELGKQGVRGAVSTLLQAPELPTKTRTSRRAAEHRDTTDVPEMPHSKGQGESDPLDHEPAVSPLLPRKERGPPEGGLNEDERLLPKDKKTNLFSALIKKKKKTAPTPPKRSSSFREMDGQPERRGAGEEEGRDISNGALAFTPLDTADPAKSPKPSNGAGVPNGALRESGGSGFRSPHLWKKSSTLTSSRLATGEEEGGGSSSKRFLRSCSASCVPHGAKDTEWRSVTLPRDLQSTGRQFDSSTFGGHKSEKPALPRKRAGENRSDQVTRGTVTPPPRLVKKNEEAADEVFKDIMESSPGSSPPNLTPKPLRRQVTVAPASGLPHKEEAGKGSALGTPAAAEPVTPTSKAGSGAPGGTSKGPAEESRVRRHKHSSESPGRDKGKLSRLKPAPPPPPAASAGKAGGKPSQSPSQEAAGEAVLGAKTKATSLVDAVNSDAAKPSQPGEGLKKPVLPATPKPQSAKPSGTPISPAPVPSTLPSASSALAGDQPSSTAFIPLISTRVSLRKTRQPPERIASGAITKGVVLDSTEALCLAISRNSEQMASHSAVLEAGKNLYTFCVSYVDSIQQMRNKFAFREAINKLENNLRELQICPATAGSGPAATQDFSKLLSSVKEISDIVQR
Sequence of JAK3 (P52333 781-1124 limits assumed): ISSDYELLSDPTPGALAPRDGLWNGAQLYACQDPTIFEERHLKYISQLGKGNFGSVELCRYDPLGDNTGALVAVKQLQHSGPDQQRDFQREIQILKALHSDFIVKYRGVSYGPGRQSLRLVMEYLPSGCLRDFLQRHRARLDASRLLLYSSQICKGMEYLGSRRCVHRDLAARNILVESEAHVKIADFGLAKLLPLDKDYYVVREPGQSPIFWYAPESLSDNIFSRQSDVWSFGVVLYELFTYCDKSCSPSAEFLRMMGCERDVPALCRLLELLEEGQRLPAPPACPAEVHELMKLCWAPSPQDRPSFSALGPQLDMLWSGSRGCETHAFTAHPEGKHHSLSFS
Sequence of PAK3 (O75914 whole entry): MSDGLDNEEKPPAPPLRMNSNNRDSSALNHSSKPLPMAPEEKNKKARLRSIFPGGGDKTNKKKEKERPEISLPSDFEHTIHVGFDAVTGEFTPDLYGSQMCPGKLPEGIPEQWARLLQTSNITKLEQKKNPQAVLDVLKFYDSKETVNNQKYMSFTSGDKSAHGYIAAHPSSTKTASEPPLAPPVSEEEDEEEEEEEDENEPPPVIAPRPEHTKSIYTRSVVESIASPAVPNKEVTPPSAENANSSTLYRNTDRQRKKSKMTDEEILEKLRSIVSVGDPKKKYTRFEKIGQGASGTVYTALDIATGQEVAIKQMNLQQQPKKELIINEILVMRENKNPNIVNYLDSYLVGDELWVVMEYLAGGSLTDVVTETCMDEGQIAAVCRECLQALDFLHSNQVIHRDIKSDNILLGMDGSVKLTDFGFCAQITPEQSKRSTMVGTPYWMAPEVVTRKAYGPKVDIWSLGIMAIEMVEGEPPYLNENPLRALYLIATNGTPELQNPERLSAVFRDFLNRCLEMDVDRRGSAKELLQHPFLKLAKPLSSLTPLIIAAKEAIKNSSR

AKRVKGRTWTLCGTPEY [ZaTa peptide (Ala-Lys-Arg-Val-Lys-Gly-Arg-Thr-Trp-Thr-Leu-Cys-Gly-Thr-Pro-Glu-Tyr)]: the “in vitro kinase assay at ten times the IC50 for AKT1, percent inhibited” value in test [1] was 79%; in [2], 72%; in test [4], 84%; in test [5], 64%; in [6], 42%; in test [7] it was 63%. Further, the “in vitro kinase assay at ten times the IC50 for AKT1, percent inhibited” value in [8] was 73%; in test [9], 83%. Further, the “IC50, AKT1 in vitro catalytic activity (incorporation of γ-32P into Ser-21 GSK-3β substrate peptide)” value in [3] was approximately 100 nM.
